{"source": "paper PMC10125973", "about": "“A small secreted protein NICOL regulates lumicrine-mediated sperm maturation and male fertility” (Nature Communications, 2023)", "binders": {"B1": {"name": "NELL2-interacting cofactor for lumicrine signalling (NICOL), 6xHis-tagged recombinant (natural protein, mouse, UniProt Q3UR78 29-90, looked up)", "chain": "EPATGSAVPAQSRPCVDCHAFEFMQRALQDLRKTAYSLDARTETLLLQAERRALCACWPAGR", "notes": "mouse NICOL (predicted gene Gm1673, ortholog of human C4orf48), small secreted protein; cDNA encoding mouse NICOL followed by 6xHis; purified from conditioned medium, so without its signal peptide; also called purified recombinant NICOL protein; source: human 293-F cells, transiently expressed, purified from conditioned medium (ammonium sulphate, Ni-NTA, PD-10)"}}, "target": "T1, neural epidermal growth factor-like like 2 (NELL2), C-terminally 6xHis-tagged recombinant (UniProt Q61220 25-819)", "T1 construct": "NELL2, secreted protein; also called purified recombinant NELL2; source: human 293-F cells, transiently expressed, purified from conditioned medium (ammonium sulphate, Ni-NTA, PD-10)", "T1 sequence (looked up)": "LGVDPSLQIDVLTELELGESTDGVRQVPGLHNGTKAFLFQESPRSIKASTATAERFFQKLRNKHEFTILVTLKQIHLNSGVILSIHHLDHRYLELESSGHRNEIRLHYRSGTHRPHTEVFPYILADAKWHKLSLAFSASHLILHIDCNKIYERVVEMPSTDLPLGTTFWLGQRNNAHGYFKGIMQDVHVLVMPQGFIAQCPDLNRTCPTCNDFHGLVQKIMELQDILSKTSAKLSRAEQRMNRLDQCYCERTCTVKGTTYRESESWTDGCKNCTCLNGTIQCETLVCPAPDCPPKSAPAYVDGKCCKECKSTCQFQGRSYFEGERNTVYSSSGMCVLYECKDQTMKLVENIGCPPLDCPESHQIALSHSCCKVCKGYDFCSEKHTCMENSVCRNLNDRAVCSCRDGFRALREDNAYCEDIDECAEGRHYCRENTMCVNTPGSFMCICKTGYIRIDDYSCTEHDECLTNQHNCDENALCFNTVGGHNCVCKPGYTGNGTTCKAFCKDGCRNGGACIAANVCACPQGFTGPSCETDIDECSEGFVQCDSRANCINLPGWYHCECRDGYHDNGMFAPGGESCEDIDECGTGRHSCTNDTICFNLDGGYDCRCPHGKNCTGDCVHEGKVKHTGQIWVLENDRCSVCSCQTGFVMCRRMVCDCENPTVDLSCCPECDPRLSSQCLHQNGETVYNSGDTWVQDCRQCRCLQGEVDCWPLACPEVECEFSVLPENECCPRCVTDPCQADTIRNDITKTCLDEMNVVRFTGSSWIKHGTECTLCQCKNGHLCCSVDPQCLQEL", "experiment": "SPR; purified NELL2 immobilised on series S sensor chip CM5; purified NICOL in PBS as analyte; Biacore T200", "settings": "both partners purified", "data": [{"binder": "B1", "values": [{"measurement": "Kd", "value": 87, "unit": "nM"}, {"measurement": "koff", "value": 0.0062, "unit": "s⁻¹"}, {"measurement": "kon", "value": 72000, "unit": "M⁻¹ s⁻¹"}]}]}
